Source: CN113840601A (dated 2021)

Assays:
[1] = molecular target: T1, 小鼠c-Met (mouse c-Met) (mouse, UniProt P16056 25-1379, limits assumed); experiment: not described; stated in the results of the xenograft example as the reason why tolerability could not be assessed
T1 construct: Endogenous mouse protein in the host animals; no construct described

[2] = molecular target: T2, 小鼠EGFR (mouse EGFR) (mouse, UniProt Q01279 25-1210, limits assumed); experiment: as above
T2 construct: Endogenous mouse protein in the host animals; no construct described

T1 sequence (P16056 25-1379 limits assumed): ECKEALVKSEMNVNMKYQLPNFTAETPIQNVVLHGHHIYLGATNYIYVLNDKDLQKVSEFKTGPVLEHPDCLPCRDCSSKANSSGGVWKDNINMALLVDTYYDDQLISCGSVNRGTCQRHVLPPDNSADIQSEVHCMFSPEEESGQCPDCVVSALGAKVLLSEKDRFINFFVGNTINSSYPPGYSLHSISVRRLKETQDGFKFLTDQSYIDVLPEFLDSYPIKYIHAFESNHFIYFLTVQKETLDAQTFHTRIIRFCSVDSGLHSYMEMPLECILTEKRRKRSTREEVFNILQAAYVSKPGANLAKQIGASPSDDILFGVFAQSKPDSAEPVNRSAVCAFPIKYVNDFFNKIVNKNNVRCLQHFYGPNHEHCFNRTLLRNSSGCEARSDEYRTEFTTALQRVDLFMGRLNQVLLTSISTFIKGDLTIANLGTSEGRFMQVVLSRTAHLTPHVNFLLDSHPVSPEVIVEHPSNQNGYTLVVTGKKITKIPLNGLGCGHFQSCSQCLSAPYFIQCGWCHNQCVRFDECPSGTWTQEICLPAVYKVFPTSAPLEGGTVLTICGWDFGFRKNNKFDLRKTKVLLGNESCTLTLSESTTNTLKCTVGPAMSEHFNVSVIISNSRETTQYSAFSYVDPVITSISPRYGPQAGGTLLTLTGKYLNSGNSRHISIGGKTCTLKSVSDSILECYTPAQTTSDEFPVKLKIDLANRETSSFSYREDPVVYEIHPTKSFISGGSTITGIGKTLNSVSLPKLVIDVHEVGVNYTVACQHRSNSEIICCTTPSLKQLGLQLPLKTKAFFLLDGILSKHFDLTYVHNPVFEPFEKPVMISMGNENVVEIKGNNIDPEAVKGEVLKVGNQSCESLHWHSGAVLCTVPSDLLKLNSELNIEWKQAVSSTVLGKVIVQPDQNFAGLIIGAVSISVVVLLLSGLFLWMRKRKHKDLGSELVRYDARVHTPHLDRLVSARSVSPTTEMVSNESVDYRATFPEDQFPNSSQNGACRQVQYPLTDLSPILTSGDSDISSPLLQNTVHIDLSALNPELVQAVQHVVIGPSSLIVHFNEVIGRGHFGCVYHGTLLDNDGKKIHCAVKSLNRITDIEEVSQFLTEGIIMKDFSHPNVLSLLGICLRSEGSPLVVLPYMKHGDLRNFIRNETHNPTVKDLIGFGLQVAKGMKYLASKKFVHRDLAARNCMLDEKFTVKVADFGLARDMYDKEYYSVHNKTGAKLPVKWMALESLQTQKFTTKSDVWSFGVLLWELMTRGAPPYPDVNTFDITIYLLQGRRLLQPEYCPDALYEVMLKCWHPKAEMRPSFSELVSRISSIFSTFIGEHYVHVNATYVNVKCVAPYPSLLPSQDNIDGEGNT

B1: JNJ-61186372 (bispecific antibody, human IgG1, kappa)
heavy 1: not shown
light 1: not shown
heavy 2: not shown
light 2: DIQMTQSPSSVSASVGDRVTITCRASQGISNWLAWFQHKPGKAPKLLIYAASSLLSGVPSRFSGSGSGTDFTLTISSLQPEDFATYYCQQANSFPITFGQGTRLEIKRTVAAPSVFIFPPSDEQLKSGTASVVCLLNNFYPREAKVQWKVDNALQSGNSQESVTEQDSKDSTYSLSSTLTLSKADYEKHKVYACEVTHQGLSSPVTKSFNRGEC
notes: also called CNTO4424
binding result [1]: no binding | binding result [2]: no binding
